Assays:
[1] = target: T1, LEHD peptide substrate
T1 chain: LEHD

[2] = target: T2, DQMD peptide substrate
T2 chain: DQMD

[3] = target: T3, WEHD peptide substrate
T3 chain: WEHD

[4] = target: T4, DEVD peptide substrate
T4 chain: DEVD

B1: human CARD-13 (protein)
chain: MADKKPSKEDPVNMVKLLARNVLDGILDDLMENNVLNTEELRNLGKGLNFMVNNAGNLVDNITEKAQMAGKILKDRLLSHPKQLSLEYQRESEDQESEESSASSSSSTESEEENEESKDEERAASAHSMAVPPTGLPRWWQAASKMAADHFQDGGEPRVLCPGVPGLTDSKERNLGPCAPLEIQGAQPSGRLKLCPHAHFRELKTKRADEIYPVMEKEGRTRLALIICNKEFHYLLNRNGSELDLLGMQDLLETLGYSVVIEENLTAQEMETALRQFAARPEHQSSDSTSLVFMSHGILNGICGTKHWDQEPDVLHDDTIFEIFNNRNCRSLRDKPKVIIMQACRGSGAGIVWFTTDSGKASAETHGQLLQSSICNDAVTKAHVEKDFIAFKSSTPHNVSWRHEISGSVFISQIIYYFKEYSWSHHLEEIFRKVQRSFETPNVVTQLPTIERLSMTRYFYLFPGN
cleavage of peptide substrate (caspase activity) [1]: It also had some activity against LEHD peptide substrate | cleavage of peptide substrate (caspase activity) [2]: it did not cleave DEVD peptide substrate or DQMD peptide substrate | cleavage of peptide substrate (caspase activity) [3]: This purified CARD-13 cleaved WEHD peptide substrates, as does caspase-1 | cleavage of peptide substrate (caspase activity) [4]: it did not cleave DEVD peptide substrate or DQMD peptide substrate
